Experimental data reported in patent publication US20090291088A1, “THERAPEUTIC COMBINATIONS OF ANTI-IGF-1R ANTIBODIES AND OTHER COMPOUNDS” (Biogen Idec MA Inc., priority 2008, published 2009).

Assays:
IGF-1R = target: T1, IGF-1R (Homo sapiens, UniProt P08069); test: Ligand blocking assay (RIA): 125I-IGF-1 / 125I-IGF-2 binding to immobilized IGF-1R
T1 construct: human IGF-1R(1-903)-Fc (denoted hIGF-1R-Fc, generated by Biogen Idec)
Summary of the method: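 Recombinant His-tagged IGF-1R or IGF-1R-Fc coated at 250 ng/well (or IGF-1R-Fc captured via anti-human IgG); antibody or Fab preincubated 45 min at room temperature, then 100,000 cpm [125I]rhIGF-1 or rhIGF-2 added for 1 h. Bound radioactivity gamma-counted; % inhibition relative to buffer-only wells.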

IGF-1R phosphorylation = target: T2, IGF-1R phosphorylation (Homo sapiens, UniProt P08069); test: Inhibition of IGF-1 and IGF-2 mediated IGF-1R phosphorylation in MCF-7 cells (ELISA); assay type: cell-based; settings: for Inhibition of IGF-1R Phosphorylation IGF-1 / Inhibition of IGF-1R Phosphorylation IGF-2: Fabs, MCF-7; for Inhibition of IGF-1R Phosphorylation IGF-1: IGF-1 stimulated; for Inhibition of IGF-1R Phosphorylation IGF-2: IGF-2 stimulated; for Inhibition of IGF-1R.pTyr IGF-1 / Inhibition of IGF-1R.pTyr IGF-2: murine monoclonal antibodies
T2 construct: wild type IGF-1R expressed on MCF-7 tumor cells; endogenous in cells; host or cells: MCF-7
Summary of the method: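 Serum-starved MCF-7 cells were preincubated 1 h with antibodies (Fabs at 200, 20, 2 nM; mAbs at 67, 6.7, 0.67 nM) at room temperature or 37 °C, then stimulated with IGF-1 or IGF-2. Phospho-IGF-1R in lysates was captured by ELISA and detected with anti-phosphotyrosine 4G10 (OD450); % inhibition over ligand control.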

Row | Molecule | IGF Blocking IGF-2 (IGF-1R; Fabs, 125I-IGF-2) | Inhibition of IGF-1R Phosphorylation IGF-1 (IGF-1R phosphorylation) | Inhibition of IGF-1R Phosphorylation IGF-2 (IGF-1R phosphorylation) | IGF Blocking IGF-1 (IGF-1R; murine monoclonal antibodies) | IGF Blocking IGF-2 (IGF-1R; murine monoclonal antibodies) | Inhibition of IGF-1R.pTyr IGF-1 (IGF-1R phosphorylation) | Inhibition of IGF-1R.pTyr IGF-2 (IGF-1R phosphorylation)
1 | Fab M12-E01: human anti-human IGF-1R Fab from phage display library; VH SEQ ID NO:4, VL SEQ ID NO:68 (antibody, V domains shown, Antibody variable heavy chain sequence; Antibody variable light chain sequence) VH: EVQLLESGGGLVQPGGSLRLSCAASGFTFSPYSMLWVRQAPGKGLEWVSSIGSSGGSTRYADSVKGRFTISRDNSKNTLYLQMNSLRAEDTAMYYCARVRGILHYDILIGRNLYYYYMDVWGKGTTVTVSS VL: QYELTQPPSVSEAPRQRVTISCSGSSSNIGNNAINWYQQLPGKPPKLLIYYDDLLPSGVSDRFSGSKSGTSGSLAISGLQSEDEADYYCAAWDDNLNGVIFGGGTKLTVL | ++ (>30%@1ug/ml) | ++ (>30%@1ug/ml) | + (>30%@10 ug/ml) |  |  |  | 
2 | 20C8.3B8: murine anti-human IGF-1R monoclonal antibody from hybridoma; VH SEQ ID NO:43, VL SEQ ID NO:103 (antibody, V domains shown, Antibody variable heavy chain sequence; Antibody variable light chain sequence) VH: DVQLQESGPDLVKPSQSLSLTCTVTGYSITSGYSWHWIRQFPGNKLEWMGYIHYSGGTNYNPSLKSRISITRDTSKNQFFLQLNSVTTEDTATYYCARSGYGYRSAYYFDYWGQGTTVTVSS VL: DIVLTQSPASLAVSLGQRATISCRASKSVSTSAYSYMHWYQQKPGQPPKLLIYLASNLESGVPARFSGSGSGTDFTLNIHPVEEEDAATYYCQHSRELPYTFGGGTKLEIK |  |  |  | +++ (>40%@0.1 μg/ml) | +++ (>40%@0.1 μg/ml) | +++ (>30%@0.1 μg/ml) | ++ (>30%@1 μg/ml)
3 | 20D8.24B11: murine anti-human IGF-1R monoclonal antibody from hybridoma; VH SEQ ID NO:53, VL SEQ ID NO:103 (antibody, V domains shown, Antibody variable heavy chain sequence; Antibody variable light chain sequence) VH: DVQLQESGPDLVKPSQSLSLTCTVTGYSITSGYSWHWIRQFPGNKLEWMGYIHYSGGTNYNPSLKSRISITRDTSKNQFFLQLNSVTTEDTATYYCARSGYGYRSAYYFDYWGQGTTLTVSS VL: DIVLTQSPASLAVSLGQRATISCRASKSVSTSAYSYMHWYQQKPGQPPKLLIYLASNLESGVPARFSGSGSGTDFTLNIHPVEEEDAATYYCQHSRELPYTFGGGTKLEIK |  |  |  | +++ (>40%@0.1 μg/ml) | +++ (>40%@0.1 μg/ml) | +++ (>30%@0.1 μg/ml) | ++ (>30%@1 μg/ml)
4 | M14-C03: anti-IGF-1R antibody, allosteric blocker of IGF-1 and IGF-2 (antibody, V domains shown, Antibody variable heavy chain sequence; Antibody variable light chain sequence) VH: EVQLLESGGGLVQPGGSLRLSCAASGFTFSKYMMSWVRQAPGKGLEWVSYISPSGGLTWYADSVKGRFTISRDNSKNTLYLQMNSLRAEDTAVYYCARDGARGYGMDVWGQGTTVTVSS VL: DIQMTQSPATLSLSPGERATLSCRASQSVSSYLAWYQQKPGQAPRLLIYDASNRATGIPARFSGSGSGTDFTLTISSLEPEDFAVYYCQQRSNWPPEVTFGPGTKVDIK | + (>30%@10ug/ml) | ++ (>30%@1ug/ml) | ++ (>30%@1ug/ml) |  |  |  | 
